Here are results for 78 sequences from the supplement of paper PMC10126150.

± gives the standard deviation of the averaged measurements.
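Further: ATP exposure 15 min at 22 °C before imaging.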

For this data set, the system named is ATP. The data set is described as follows: switch fluorescence ratio, 500 uM ATP over buffer (Cy3 cluster intensity, sum of 5 cycles each) (fold (ratio)); higher = stronger signal-on switching upon ATP binding; sequences stand for … in TCGTCGGCAGCGTCAGATGTGTATAAGAGACAGTTTTTTTTTTTTTTTTTTTTTTTTT…TC. The conditions noted are these: aptamer strand: ATP DNA aptamer (quencher-CACCTGGGGGAGTATTGCGGAGGAAGG + anchor), 100 nM annealed; ATP concentration: 500 uM. A digest of the protocol:
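Values give the fluorescence ratio for each switch-domain sequence, averaged from per-cluster ratios of summed target-cycle to summed buffer-cycle Cy3 intensity. The Cy3-labelled switching-strand clusters sat on a modified Illumina MiSeq flow-cell, were annealed to 100 nM quencher-labelled ATP aptamer, and were imaged in selection buffer, then after 15 min with 500 uM ATP at 22 °C. Five cycles ran with NaOH stripping and re-annealing between them, and clusters outside 100-1000 RFU were excluded.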
ATTGGGTGTC: the switch fluorescence ratio turned out to be 0.985 ± 0.039. The result for AGTGGTTTGT reads 0.949 ± 0.017; that for TGGAGGGGGA, 0.999 ± 0.038. Turning to ACGCTTTATT, the switch fluorescence ratio stood at 1.08 ± 0.032.

Turning to TGGTGGCCCG, the switch fluorescence ratio worked out at 1.04 ± 0.035.

ATGTCCTATG: the switch fluorescence ratio was determined as 1.003 ± 0.0066.

On to GGCTCAGGGC, for which the switch fluorescence ratio was 0.9793 ± 0.0024.

On to TTTTTCGACC, for which the switch fluorescence ratio is 1.01 ± 0.035. The result for GGGGGGGTGG reads 1 ± 0.033; that for TTGCTGCAAA, 1.1 ± 0.12. As to CGAGCGACGT, the switch fluorescence ratio was 0.9863 ± 0.007. The same measure for TTTTTTCAGA: 0.975 ± 0.029; for TCGGTAGTG: 0.985 ± 0.028. As to GGAACACTGT, the switch fluorescence ratio was found to be 0.9955 ± 0.0077.

Turning to CCCGGGAATC, the switch fluorescence ratio came to 1.06 ± 0.059.

With CATAACGGGG, the switch fluorescence ratio is 0.957 ± 0.04. The same measure for TCGCGTTTTT: 0.994 ± 0.031; for TCATAGTCGG: 1 ± 0.024. The same measure for CAGATAAGTG: 1.01 ± 0.068; for TTTATTCTAA: 0.976 ± 0.02. The same measure for CTAGGGGCGT: 0.979 ± 0.019. Take TGACTGAAGG: the switch fluorescence ratio stood at 0.9503 ± 0.0065. For TTGTTTGATA, the switch fluorescence ratio was found to be 0.9883 ± 0.0073. Turning to TAACACAGTC, the switch fluorescence ratio turned out to be 1.04 ± 0.054. Consider ACCACGCGGG, for which the switch fluorescence ratio is 1.01 ± 0.066.

In the case of TGGGGGTGAG, the switch fluorescence ratio was determined as 1 ± 0.029. The result for GGAGGGGATG reads 0.981 ± 0.011; that for GGGTAAAGTT, 1.01 ± 0.027; that for AAAATGATCG, 1.006 ± 0.0074. The result for TCGGGTATTC reads 1.06 ± 0.14; that for TTGAAGTGCG, 1.02 ± 0.049; that for GAGGGGATGA, 1.01 ± 0.031.

For TAGATAGAGG, the switch fluorescence ratio was 0.961 ± 0.016. The same measure for GGTTTCAGCA: 1.01 ± 0.042.

For TACGCTGCAG, the switch fluorescence ratio turned out to be 1.05 ± 0.049.

CGCCGGGAGG: the switch fluorescence ratio was determined as 0.989 ± 0.073. The same measure for GGGTCTGGAG: 1 ± 0.034. For the sequence TTTTCGTGCA, the switch fluorescence ratio is 1.03 ± 0.046. Turning to GGGTAACGGC, the switch fluorescence ratio is 1.01 ± 0.089.

ATATAGAGG: the switch fluorescence ratio was determined as 1.02 ± 0.019.

Regarding GGGTAGGGGA, the switch fluorescence ratio was found to be 1 ± 0.049.

Turning to TCATGAACTT, the switch fluorescence ratio is 1.07 ± 0.078. The result for AATTTGGGCG reads 1 ± 0.04; that for GAGAGCGAGT, 1.03 ± 0.036; that for TTATTCCGGT, 1.006 ± 0.0024. The result for ATCAAAAGCG reads 0.96765 ± 0.00089.

Take GACTCTGGGA: the switch fluorescence ratio amounted to 1.11 ± 0.027. The same measure for GGTATAATTA: 0.964 ± 0.024.

With ATGGCAAGGT, the switch fluorescence ratio was 1.02 ± 0.065. The result for GAACGTACAA reads 1.587 ± 0.015. As to TAGCAATTTG, the switch fluorescence ratio amounted to 1.05 ± 0.053. As for TTTATTGTAA, the switch fluorescence ratio turned out to be 0.991 ± 0.031.

Regarding CGAGGATAGG, the switch fluorescence ratio was 0.999 ± 0.035. Turning to GGTCACGGCA, the switch fluorescence ratio was determined as 1 ± 0.013. Regarding TATCACGGCG, the switch fluorescence ratio came to 0.998 ± 0.013. The same measure for TCGGAGGGAA: 1.03 ± 0.027; for TTTATTGGGA: 1.07 ± 0.13; for CCTGGGTTAG: 0.998 ± 0.017. The same measure for CCCTTGTGTG: 1.43 ± 0.051; for TGTTGACAGT: 1.01 ± 0.021; for CAAGGGCGGC: 0.973 ± 0.012. The result for ATATGCGGGT reads 0.985 ± 0.032; that for GCATCGTCGG, 1.04 ± 0.058. AGTCAGAAAT: the switch fluorescence ratio was determined as 1 ± 0.022. With GGGAGGTAAT, the switch fluorescence ratio stood at 1 ± 0.056. The result for CATAATCTAG reads 1.03 ± 0.013; that for GGGTGGGTTA, 1.01 ± 0.038; that for GACGGGTATA, 1.36 ± 0.47. Turning to TCAACTTTTT, the switch fluorescence ratio is 1.01 ± 0.02. The result for CATTATTGTT reads 0.999 ± 0.033; that for AGTGAGGATC, 0.993 ± 0.032; that for GAAGTGCGAG, 1.004 ± 0.008. The result for ATTAATTAAT reads 1 ± 0.034; that for ACGTCTGAGG, 1.02 ± 0.029. The result for TTTTTTTGAT reads 1.16 ± 0.53. As to ATCATTTGTC, the switch fluorescence ratio turned out to be 1.022 ± 0.0092. Regarding CCTATTACGA, the switch fluorescence ratio was found to be 1.04 ± 0.015. The same measure for CCGGTACTTT: 1.05 ± 0.016.
